Laboratory results: patent US20070207967

Tests used:
[1] = tested on: PPC peptide, soluble recombinant 18-mer ADGACGYGRFSPPCGAAG
[2] = molecular target: recombinant soluble human uPAR (suPAR) (UniProt Q03405)
Chain of recombinant soluble human uPAR (suPAR) (Q03405 whole entry, looked up, tested part not stated): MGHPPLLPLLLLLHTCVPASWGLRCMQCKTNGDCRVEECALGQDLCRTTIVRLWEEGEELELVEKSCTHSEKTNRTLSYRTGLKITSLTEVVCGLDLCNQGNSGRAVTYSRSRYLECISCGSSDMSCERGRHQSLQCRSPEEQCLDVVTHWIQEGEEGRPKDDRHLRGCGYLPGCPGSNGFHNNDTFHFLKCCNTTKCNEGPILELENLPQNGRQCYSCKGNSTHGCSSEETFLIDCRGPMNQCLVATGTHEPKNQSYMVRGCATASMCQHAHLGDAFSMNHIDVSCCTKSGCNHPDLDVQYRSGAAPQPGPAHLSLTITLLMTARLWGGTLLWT

Chain of trypsin-activated MMP-9 (chain, as listed by the source): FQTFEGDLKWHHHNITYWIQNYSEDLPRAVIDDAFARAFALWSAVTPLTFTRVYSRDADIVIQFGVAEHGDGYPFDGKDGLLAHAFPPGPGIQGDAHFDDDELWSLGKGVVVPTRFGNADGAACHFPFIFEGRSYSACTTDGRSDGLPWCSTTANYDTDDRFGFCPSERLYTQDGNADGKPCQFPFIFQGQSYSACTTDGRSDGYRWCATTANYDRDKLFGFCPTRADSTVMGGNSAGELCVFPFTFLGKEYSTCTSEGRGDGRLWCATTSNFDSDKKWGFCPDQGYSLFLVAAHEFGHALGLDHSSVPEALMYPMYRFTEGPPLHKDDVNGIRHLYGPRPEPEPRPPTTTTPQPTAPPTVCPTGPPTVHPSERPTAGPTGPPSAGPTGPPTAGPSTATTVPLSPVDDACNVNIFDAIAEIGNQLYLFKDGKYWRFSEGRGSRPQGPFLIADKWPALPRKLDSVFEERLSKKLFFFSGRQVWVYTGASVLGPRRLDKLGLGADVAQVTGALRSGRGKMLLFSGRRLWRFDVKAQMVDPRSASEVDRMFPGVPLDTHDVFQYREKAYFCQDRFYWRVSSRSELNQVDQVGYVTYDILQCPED

trypsin-activated MMP-9
gelatin degradation assay (enzymatic activity, biotinylated gelatin substrate) [1]: PPC inhibited both MMP-9 and MMP-2 activity
cleavage of soluble uPAR in vitro (western blot) [2]: MMP-9 cleaved the domain 1 (D1) from uPAR similarly as chymotrypsin does
